Assay results published in paper PMC12767347 (bioRxiv, 2025).
“And” between values parts separate entries of the source, which are not always exact repeats. Equal entries are not always repeated. Where two headings read alike, the source gives them in different places.

T1: untagged PNPase (catalytically active) (M. smegmatis, UniProt A0QVQ5 1-763)
T1 sequence: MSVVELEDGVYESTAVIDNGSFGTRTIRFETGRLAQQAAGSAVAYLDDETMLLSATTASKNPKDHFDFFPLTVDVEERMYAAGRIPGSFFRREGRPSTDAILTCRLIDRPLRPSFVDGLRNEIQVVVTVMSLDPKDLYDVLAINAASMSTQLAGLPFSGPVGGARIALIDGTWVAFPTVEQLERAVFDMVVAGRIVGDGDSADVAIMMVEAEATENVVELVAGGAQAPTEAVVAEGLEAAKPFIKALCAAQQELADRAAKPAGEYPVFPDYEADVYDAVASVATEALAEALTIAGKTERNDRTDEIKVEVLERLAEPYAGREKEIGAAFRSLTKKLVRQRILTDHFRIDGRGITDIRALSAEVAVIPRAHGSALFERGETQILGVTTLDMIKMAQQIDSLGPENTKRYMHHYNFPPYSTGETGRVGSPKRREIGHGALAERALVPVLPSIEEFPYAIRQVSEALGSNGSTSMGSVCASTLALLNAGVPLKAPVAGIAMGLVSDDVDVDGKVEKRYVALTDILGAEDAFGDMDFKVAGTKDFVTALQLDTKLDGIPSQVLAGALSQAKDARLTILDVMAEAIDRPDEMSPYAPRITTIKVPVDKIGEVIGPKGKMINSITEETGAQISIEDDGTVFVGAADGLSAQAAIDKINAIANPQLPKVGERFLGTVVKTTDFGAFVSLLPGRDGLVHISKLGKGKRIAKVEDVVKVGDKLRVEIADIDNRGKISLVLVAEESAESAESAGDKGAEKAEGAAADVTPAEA

T2: HA-tagged PNPase (catalytically active) (M. smegmatis, UniProt A0QVQ5 1-763)
T2 sequence: T1 sequence

B1: HA-tagged RNase J (catalytically active) (enzyme)
chain: MSAELAPPPPLAPGGLRVTALGGISEIGRNMTVFEHLGRLLIVDCGVLFPGHDEPGVDLILPDLRHIEDRLDEIEALVVTHAHEDHIGAIPFLLKLRPDIPVVGSKFTIALVREKCREHRLKPKFVEVAERQSSQHGVFECEYFAVNHSIPGCLAVAIHTGAGTVLHTGDIKLDQLPLDGRPTDLPGMSRLGDAGVDLFLCDSTNSEHPGVSPSESEVGPTLHRLIRGAEGRVIVACFASNVDRVQQIIDAAVALGRRVSFVGRSMVRNMGIARELGYLKVDDSDILDIAAAEMMPPDRVVLITTGTQGEPMAALSRMSRGEHRSITLTSGDLIILSSSLIPGNEEAVYGVIDSLSKIGARVVTNAQARVHVSGHAYAGELLFLYNGVRPRNVMPVHGTWRHLRANAALAASTGVPPENIVLAENGVSVDLVAGRASISGAVTVGKMFVDGLITGDVGDATLGERLILSSGFVSITVVVHRGTGRPAGPAHLISRGFSEDPKALEPVAQKVERELEALAADNVTDPTRIAQAVRRTVGKWVGETYRRQPMIVPTVIEI
B2: untagged RNase J (catalytically active) (enzyme)
chain: B1 chain
B3: catalytically dead RNase E N-terminal IDR deletion (retaining AA 330-1037), N-terminal 6x-His and FLAG tagged (domain or fragment)
chain: SDKSDDSEIQGISGSTRLEAKRQRRRDGRDAGRRRPPILSEAEFLARREAVERTMIVRDKVRTEPPHEGARYTQIAVLEDGVVVEHFVTSAASASLVGNIYLGIVQNVLPSMEAAFVDIGRGRNGVLYAGEVNWEAAGLGGQNRKIEQALKPGDYVVVQVSKDPVGHKGARLTTQVSLAGRYLVYVPGASSTGISRKLPDTERQRLKEILREVVPSDAGVIIRTASEGVKEEDIRSDVERLQKRWSEIEAKAAEVTEKKAGAAVALYEEPDVLVKVIRDLFNEDFSSLIVSGDEAWNTINSYVEAVAPDLMPRLTKYEPAGPDAPDVFAVHRIDEQLAKAMDRKVWLPSGGTLVIDRTEAMTVVRVNTGKFTGSGGNLEQTVTRNNLEAAEEIVRQLRLRDIGGIVVIRFIDMVLESNRDLVLRRLTEALARDRTRHQVSEVTSLGLVQLTRKRLGTGLVEAFSTACTHCGGRGIVLHGDPIDSASSNGGRKSDSSGGGGSGGGRRGKRGKKGAARTEEVHVAKVPDHTPGEHPMFKAMAAANGKHEGDEDHEDHEDHETAEDTTAAEVRDDTRDEHDADERAHVVTAAVGAAGDEDLDDSDEDSDLDSDEESDDESDEDEIELDDDEDELDEDIEVIGDSDDSDDSDDSDEDDDSDDSDDDSDEDEDSDSDEDEEPVREVYEPPVTAPRARVRRRAAARPAGPPSHD
B4: catalytically dead RNase E C-terminal IDR deletion (retaining AA 2-823), N-terminal 6x-His and FLAG tagged (domain or fragment)
chain: AEDAHTEDLSTQTPQQEGLPERLRVHSLARVLGTTSRRVLDALAEFDGRQRSAHSTVDKADAERVRAALTESPAAETPPEEAPAAETPVADLVVVQAEQVEVVTVSEAGPAEPAEPAEPEAPAAEAEAEAETEVADEAETPEPTFRGAVLVGDEPESRLILEHANIPPARETQTERPDYLPLFVAPQPVSFEPAVVDDEDEDDDTETGAESDFDSGADSDSDDDQADRPRRRRRGRRGRGRGRGEQNDDATSDADTDSTEDQTDGDEQESGEDSDDSGDEDSTTTEGGTRRRRRRRRRKSGSGDSDDAVSPDDPPNTVVHERAPRTERSDKSDDSEIQGISGSTRLEAKRQRRRDGRDAGRRRPPILSEAEFLARREAVERTMIVRDKVRTEPPHEGARYTQIAVLEDGVVVEHFVTSAASASLVGNIYLGIVQNVLPSMEAAFVDIGRGRNGVLYAGEVNWEAAGLGGQNRKIEQALKPGDYVVVQVSKDPVGHKGARLTTQVSLAGRYLVYVPGASSTGISRKLPDTERQRLKEILREVVPSDAGVIIRTASEGVKEEDIRSDVERLQKRWSEIEAKAAEVTEKKAGAAVALYEEPDVLVKVIRDLFNEDFSSLIVSGDEAWNTINSYVEAVAPDLMPRLTKYEPAGPDAPDVFAVHRIDEQLAKAMDRKVWLPSGGTLVIDRTEAMTVVRVNTGKFTGSGGNLEQTVTRNNLEAAEEIVRQLRLRDIGGIVVIRFIDMVLESNRDLVLRRLTEALARDRTRHQVSEVTSLGLVQLTRKRLGTGLVEAFSTACTHCGGRGIVLHGDPIDSASSNGGRKSD
B5: catalytically dead full-length RNase E (D694R, D738R), N-terminal 6x-His and FLAG tagged (enzyme)
chain: MAEDAHTEDLSTQTPQQEGLPERLRVHSLARVLGTTSRRVLDALAEFDGRQRSAHSTVDKADAERVRAALTESPAAETPPEEAPAAETPVADLVVVQAEQVEVVTVSEAGPAEPAEPAEPEAPAAEAEAEAETEVADEAETPEPTFRGAVLVGDEPESRLILEHANIPPARETQTERPDYLPLFVAPQPVSFEPAVVDDEDEDDDTETGAESDFDSGADSDSDDDQADRPRRRRRGRRGRGRGRGEQNDDATSDADTDSTEDQTDGDEQESGEDSDDSGDEDSTTTEGGTRRRRRRRRRKSGSGDSDDAVSPDDPPNTVVHERAPRTERSDKSDDSEIQGISGSTRLEAKRQRRRDGRDAGRRRPPILSEAEFLARREAVERTMIVRDKVRTEPPHEGARYTQIAVLEDGVVVEHFVTSAASASLVGNIYLGIVQNVLPSMEAAFVDIGRGRNGVLYAGEVNWEAAGLGGQNRKIEQALKPGDYVVVQVSKDPVGHKGARLTTQVSLAGRYLVYVPGASSTGISRKLPDTERQRLKEILREVVPSDAGVIIRTASEGVKEEDIRSDVERLQKRWSEIEAKAAEVTEKKAGAAVALYEEPDVLVKVIRDLFNEDFSSLIVSGDEAWNTINSYVEAVAPDLMPRLTKYEPAGPDAPDVFAVHRIDEQLAKAMDRKVWLPSGGTLVIDRTEAMTVVRVNTGKFTGSGGNLEQTVTRNNLEAAEEIVRQLRLRDIGGIVVIRFIDMVLESNRDLVLRRLTEALARDRTRHQVSEVTSLGLVQLTRKRLGTGLVEAFSTACTHCGGRGIVLHGDPIDSASSNGGRKSDSSGGGGSGGGRRGKRGKKGAARTEEVHVAKVPDHTPGEHPMFKAMAAANGKHEGDEDHEDHEDHETAEDTTAAEVRDDTRDEHDADERAHVVTAAVGAAGDEDLDDSDEDSDLDSDEESDDESDEDEIELDDDEDELDEDIEVIGDSDDSDDSDDSDEDDDSDDSDDDSDEDEDSDSDEDEEPVREVYEPPVTAPRARVRRRAAARPAGPPSHD

Columns and labels:
[1] = target: T1, untagged PNPase (catalytically active); assay: co-IP
[2] = target: T2, HA-tagged PNPase (catalytically active); assay: co-IP
[3] = target: the molecule itself; assay: SEC
[4] = target: T2, HA-tagged PNPase (catalytically active); assay: co-IP; remark: listed apart in the source

Binder | stoichiometry N [3] | further results
B1 | – | binding result [1]: binds
B2 | – | binding result [2]: binds
B3 | 2 and 4 | binding result [4]: binds
B4 | 2 and 4 | –
B5 | 4 | –
